B1: LCOR (parent)
chain: PCAGSTSLSHSPGCSSTQGNGRPG
B2: ZNF193 (parent)
chain: QCIECGKSFNRHCNLIRHQKIHTV

Variants of: B1
Experiment: protein stability index of a GFP-peptide fusion (GPS, HEK-293T) (PSI 1-6); higher = more stable
Conditions: c terminus: a fixed tail appended
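Also: lentivirally expressed fusions sorted by FACS into six bins by GFP to DsRed ratio, PSI derived from sequencing read proportions per bin multiplied by bin number.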

Protein stability index of substitutions, site by site:
G24: Y 2.61

Variants of: B2
Experiment: as above
Conditions: c terminus: a fixed tail appended

Protein stability index of substitutions, site by site:
Q1: A 3.14, C 3.26, D 3.5, E 2.8, F 2.83, G 2.45, H 3.36, I 3.28, K 3.6, L 3.14, M 3.54, N 2.56, P 2.62, R 4.1, S 3.44, T 4.04, V 3.21, W 2.3, Y 2.99
C2: A 1.66, D 2.41, E 2.77, F 1.07, G 2.13, H 1.6, I 2.06, K 1.95, L 1.63, M 1.71, N 2.45, P 1.34, Q 2.14, R 1.72, S 1.81, T 1.74, V 2.73, W 2.04, Y 2.03
I3: A 4.7, C 3.63, D 3.4, E 4.31, F 3.32, G 3.72, H 4.06, K 3.87, L 3.87, M 3.69, N 3.65, P 4.11, Q 4.09, R 3.59, S 4.17, T 4.2, V 3.73, W 3.18, Y 3.38
E4: A 3.12, C 2.54, D 2.78, F 3.94, G 2.04, H 4.27, I 3.54, K 3.1, L 2.66, M 3.1, N 2.76, P 1.39, Q 3.43, R 3.71, S 2.75, T 3.42, V 3.48, W 3.85, Y 3.06
C5: A 2.36, D 2.52, E 2.71, F 1.44, G 2.01, H 1.98, I 1.53, K 2.09, L 1.54, M 1.94, N 1.79, P 2.49, Q 2.6, R 2.22, S 2.56, T 1.95, V 2.13, W 2.07, Y 2.26
G6: A 2.38, C 1.99, D 2.62, E 2.84, F 1.59, H 2.15, I 1.42, K 3.54, L 1.97, M 2.11, N 2.38, P 2.18, Q 2.44, R 2.5, S 2.54, T 2.23, V 1.92, W 1.5, Y 2.17
K7: A 3.74, C 2.51, D 2.57, E 3.86, F 2.37, G 2.13, H 2.35, I 3.08, L 2.86, M 3.34, N 2.34, P 2.59, Q 3.45, R 3.05, S 2.82, T 2.93, V 2.44, W 2.18, Y 2.29
S8: A 2.84, C 3.85, D 3.4, E 3.52, F 4.03, G 2.49, H 3.29, I 4.05, K 3.64, L 4.35, M 3.48, N 3.47, P 3.13, Q 3.02, R 3.77, T 3.96, V 4.35, W 3.17, Y 3.43
F9: A 2.24, C 3.47, D 3.09, E 2.93, G 2.86, H 2.55, I 2.13, K 3.06, L 1.9, M 2.51, N 2.56, P 3.25, Q 2.88, R 2.77

Source: the supplement of paper PMC10567573
